Measurements: paper PMC6882556, “Cryo-EM structure of the KvAP channel reveals a non-domain-swapped voltage sensor topology” (eLife, 2019)

Target: the molecule itself
Experiment: cryo-EM structure; KvAP(12-282) tetramer purified as a complex with 6E1 Fab; 20 mM Tris-HCl pH 8.0, 150 mM KCl, 0.06% digitonin; C4 symmetry applied; final map ~5.9 Å

B1: KvAP, voltage-gated K+ channel from Aeropyrum pernix (residues 12-282) (natural protein, UniProt Q9YDF8 25-295, looked up)
chain: GGRVRNIGDVMEHPLVELGVSYAALLSVIVVVVEYTMQLSGEYLVRLYLVDLILVIILWADYAYRAYKSGDPAGYVKKTLYEIPALVPAGLLALIEGHLAGLGLFRLVRLLRFLRILLIISRGSKFLSAIADAADKIRFYHLFGAVMLTVLYGAFAIYIVEYPDPNSSIKSVFDALWWAVVTATTVGYGDVVPATPIGKVIGIAVMLTGISALTLLIGTVSNMFQKILVGEPEPSCSPAKLAEMVSSMSEEEFEEFVRTLKNLRRLENSMK
notes: KvAP, voltage-gated potassium channel of Aeropyrum pernix, residues 12-282; In the cryo-EM sample the tetramer carried 6E1 Fab fragments on its voltage sensors; also called KvAP tetramer
stoichiometry N: 4
